This is an account of results in publication doi:10.1101/2021.09.30.462564 (bioRxiv, 2021).

This data set deals with the molecule itself. In words: crystal structure; His-SUMO tagged P. shigelloides NagK crystallised by the microbatch method; X-ray data at 100 K.

B1: N-acetylglucosamine kinase (NagK) from Plesiomonas shigelloides (enzyme)
chain: MYYGFDIGGTKIEFGAFDADLVRVARERVATPTESYAAFLDAIVTLVNNADAEFGVKGTVGIGIPGIADVETGKLLTSNIPAAMGHTLQRDLEERLQRPVKIENDANCFALSEAWDEDLRGEPSVLGLILGTGVGGGLIFNGKVHSGRANIAGEIGHTRLPYDALKLLGMENAPIFPCGCKNSGCIDNYLSGRGFEQLYDHYFSEKLSAPEIIAHYEQGERRAVQHVERFMELLAICLANIFTCLDPHVVVLGGGLSNFELIYQELPKRLPAHLLHVAKLPKIIKARHGDAGGVRGAAFLNL
notes: N-acetylglucosamine kinase NagK of Plesiomonas shigelloides, codon optimised gene in pOPINS3C; His-SUMO tagged construct (pOPINS3C) used for crystallisation; no cleavage of the tags is described; also called PsNagK; P. shigelloides NagK; source: E. coli BL21 (DE3), purified (HisTrap, Superdex 200 size exclusion); not shown: polyhistidine, N-terminal, kept; SUMO, N-terminal, kept
On to B1, for which the binding result is given as “binds”.
